B1: Transmembrane glycoprotein NMB (Homo sapiens), Q14956-1 (parent)
chain: MECLYYFLGFLLLAARLPLDAAKRFHDVLGNERPSAYMREHNQLNGWSSDENDWNEKLYPVWKRGDMRWKNSWKGGRVQAVLTSDSPALVGSNITFAVNLIFPRCQKEDANGNIVYEKNCRNEAGLSADPYVYNWTAWSEDSDGENGTGQSHHNVFPDGKPFPHHPGWRRWNFIYVFHTLGQYFQKLGRCSVRVSVNTANVTLGPQLMEVTVYRRHGRAYVPIAQVKDVYVVTDQIPVFVTMFQKNDRNSSDETFLKDLPIMFDVLIHDPSHFLNYSTINYKWSFGDNTGLFVSTNHTVNHTYVLNGTFSLNLTVKAAAPGPCPPPPPPPRPSKPTPSLATTLKSYDSNTPGPAGDNPLELSRIPDENCQINRYGHFQATITIVEGILEVNIIQMTDVLMPVPWPESSLIDFVVTCQGSIPTEVCTIISDPTCEITQNTVCSPVDVDEMCLLTVRRTFNGSGTYCVNLTLGDDTSLALTSTLISVPDRDPASPLRMANSALISVGCLAIFVTVISLLVYKKHKEYNPIENSPGNVVRSKGLSVFLNRAKAVFFPGNQEKDPLLKNQEFKGVS

Variants of: B1
Conditions: with ptk6_human PTK6, Q13882

Row | effect of a mutation on the interaction | Variant
1 | disrupting interaction strength | Y525F

— IntAct's records for PubMed 26751287
